Legend:
[1] = target: His-tagged linear tetra-ubiquitin chains (TR-FRET with SHARPIN NZF) (UniProt P0CG48); test: TR-FRET assay; details: DMSO; mixed and incubated for 1 h; parent: 100; read off a plot; scale: relative fluorescence intensity
[2] = target: Sm-di-ubiquitin (GA mutant) (UniProt P0CG48); test: NanoBiT assay in HEK293T cells; details: 1 h, transient transfection, cultured 24 h, read off a plot, scale: relative luminescent intensity

| Substance | percent of parent [1] | percent of parent ([2]; DMSO, parent: 100) | response ([2]; FSL0717 10 μM, parent: est. 60) | response ([2]; FSL0720 10 μM, parent: est. 50) |
| --- | --- | --- | --- | --- |
| GST-tagged SHARPIN NZF T351A; F352A | 38 |  |  |  |
| Lg-HOIL-1L NZF WT (from UniProt Q9WUB0) TR-AA |  | 52 | 37 | 43 |

Source: article PMC11555115
